# T1: FcγRIIb (human, UniProt P31994 43-217)
# T1 construct: extracellular domain; also called FcgRIIb; 2b; not shown: His tag at the C terminus
# T1 sequence (looked up): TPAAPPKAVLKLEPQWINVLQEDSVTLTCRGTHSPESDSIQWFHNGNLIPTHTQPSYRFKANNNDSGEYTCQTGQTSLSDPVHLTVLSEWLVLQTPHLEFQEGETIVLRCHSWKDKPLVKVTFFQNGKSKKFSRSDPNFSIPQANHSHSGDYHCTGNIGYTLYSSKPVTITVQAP
# T2: FcγRIIa H (human, UniProt P12318 34-217)
# T2 construct: extracellular domain; also called FcgRIIa H; 2aH; not shown: His tag at the C terminus
# T2 sequence (looked up): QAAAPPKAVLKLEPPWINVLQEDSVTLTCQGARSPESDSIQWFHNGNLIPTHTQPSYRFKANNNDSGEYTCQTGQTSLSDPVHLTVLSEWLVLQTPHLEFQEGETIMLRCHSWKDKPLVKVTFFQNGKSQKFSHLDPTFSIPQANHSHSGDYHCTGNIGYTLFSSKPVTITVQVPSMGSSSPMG
# T3: FcγRIIb (human, UniProt P31994 43-217)
# T3 construct: extracellular domain; also called FcgRIIb; CD32B
# T3 sequence (looked up): T1 sequence (looked up)
# B1: GpH7-A5/GpH7-B3 variant P329_11K/GpL16-k0 (antibody, human IgG1, kappa)
# heavy 1: not shown
# heavy 2: not shown
# light: DIVMTQSPLSLPVTPGEPASISCQASESLVHSNRNTYLHWYLQKPGQSPQLLIYKVSNRFSGVPDRFSGSGSGTDFTLKISRVEAEDVGVYYCSQNTHVPPTFGQGTKVEIERTVAAPSVFIFPPSDEQLKSGTASVVCLLNNFYPREAKVQWKVDNALQSGNSQESVTEQDSKDSTYSLSSTLTLSKADYEKHKVYACEVTHQGLSSPVTKSFNRGEC
# notes: He Ab; mutation in the GpH7-B3 chain only; also called He Ab
# B2: GpH7-A5/GpH7-B3 variant P329_15Y/GpL16-k0 (antibody, human IgG1, kappa)
# heavy 1: not shown
# heavy 2: not shown
# light: B1 light
# notes: as for B1
# B3: GpH7-A5/GpH7-B3 variant P329_03V/GpL16-k0 (antibody, human IgG1, kappa)
# heavy 1: not shown
# heavy 2: not shown
# light: B1 light
# notes: as for B1
# B4: GpH7-A5/GpH7-B3 variant P331_01G/GpL16-k0 (antibody, human IgG1, kappa)
# heavy 1: not shown
# heavy 2: not shown
# light: B1 light
# notes: as for B1
# B5: GpH7-A5/GpH7-B3 variant P329_20W/GpL16-k0 (antibody, human IgG1, kappa)
# heavy 1: not shown
# heavy 2: not shown
# light: B1 light
# notes: as for B1
# B6: GpH7-A5/GpH7-B3 variant P329_19Q/GpL16-k0 (antibody, human IgG1, kappa)
# heavy 1: not shown
# heavy 2: not shown
# light: B1 light
# notes: as for B1
# B7: GpH7-A5/GpH7-B3 variant P329_01G/GpL16-k0 (antibody, human IgG1, kappa)
# heavy 1: not shown
# heavy 2: not shown
# light: B1 light
# notes: He Ab: mutation in the GpH7-B3 H chain only
# B8: GpH7-A5/GpH7-B3 variant A330_12R/GpL16-k0 (antibody, human IgG1, kappa)
# heavy 1: not shown
# heavy 2: not shown
# light: B1 light
# notes: as for B7
# B9: GpH7-A5/GpH7-B3 variant A330_03V/GpL16-k0 (antibody, human IgG1, kappa)
# heavy 1: not shown
# heavy 2: not shown
# light: B1 light
# notes: as for B7
# B10: GpH7-A5/GpH7-B3 variant A327_06M/GpL16-k0 (antibody, human IgG1, kappa)
# heavy 1: not shown
# heavy 2: not shown
# light: B1 light
# notes: as for B7
# B11: GpH7-A5/GpH7-B3 variant A327_04F/GpL16-k0 (antibody, human IgG1, kappa)
# heavy 1: not shown
# heavy 2: not shown
# light: B1 light
# notes: as for B7
# B12: GpH7-A5/GpH7-B3 variant A327_19Q/GpL16-k0 (antibody, human IgG1, kappa)
# heavy 1: not shown
# heavy 2: not shown
# light: B1 light
# notes: as for B7
# B13: GpH7-A5/GpH7-B3 variant A330_13S/GpL16-k0 (antibody, human IgG1, kappa)
# heavy 1: not shown
# heavy 2: not shown
# light: B1 light
# notes: as for B7
# B14: GpH7-A5/GpH7-B3 variant A330_08L/GpL16-k0 (antibody, human IgG1, kappa)
# heavy 1: not shown
# heavy 2: not shown
# light: B1 light
# notes: He Ab: A330L (EU numbering) in the GpH7-B3 H chain only; also called GpH7-A5/GpH7-B3-20-08L/GpL16-k0
# B15: GpH7-A5/GpH7-B3 variant A330_07I/GpL16-k0 (antibody, human IgG1, kappa)
# heavy 1: not shown
# heavy 2: not shown
# light: B1 light
# notes: as for B7
# B16: GpH7-A5/GpH7-B3 variant L328_12R/GpL16-k0 (antibody, human IgG1, kappa)
# heavy 1: not shown
# heavy 2: not shown
# light: B1 light
# notes: as for B7
# B17: GpH7-A5/GpH7-B3 variant L328_11K/GpL16-k0 (antibody, human IgG1, kappa)
# heavy 1: not shown
# heavy 2: not shown
# light: B1 light
# notes: as for B7
# B18: GpH7-A5/GpH7-B3 variant A327_12R/GpL16-k0 (antibody, human IgG1, kappa)
# heavy 1: not shown
# heavy 2: not shown
# light: B1 light
# notes: as for B7
# Molecular target: T4, FcγRIa (human, UniProt P12314 16-292)
# T4 construct: extracellular domain; also called FcgRI; CD64
# T4 sequence (P12314 16-292): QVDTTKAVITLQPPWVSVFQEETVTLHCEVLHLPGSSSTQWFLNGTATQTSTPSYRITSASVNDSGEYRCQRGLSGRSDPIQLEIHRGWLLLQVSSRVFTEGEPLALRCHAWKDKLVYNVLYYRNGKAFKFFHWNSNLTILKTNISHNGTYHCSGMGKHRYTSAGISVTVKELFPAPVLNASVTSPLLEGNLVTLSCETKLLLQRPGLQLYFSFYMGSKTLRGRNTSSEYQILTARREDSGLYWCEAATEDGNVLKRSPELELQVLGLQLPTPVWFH
# Assay: ratio of He/Con_1a to He/Con_2b (FcγRIa over FcγRIIb), SPR
# Experimental: (§1) The heterodimerized antibodies He Abs in which one of the H chains was introduced with an alteration were assayed for their binding activities to each activating FcγR and inhibitory FcγR according to the method described in Example 4. […] The activating FcγRs in FIGS. 26, 27, 28, and 29 are FcγRIa, FcγRIIa (R), FcγRIIa (H), and FcγRIIIa, respectively.
# (§2) Analysis of interaction between objective antibody and the FcγR was carried out using Biacore T100 (GE Healthcare). HBS-EP+ (GE Healthcare) was used as the running buffer, and the measurement temperature was set to 25° C. Chips produced by immobilizing the antigen peptide by the amine coupling method to a Series S Sencor Chip CM5 (GE Healthcare), or alternatively, chips produced by allowing preliminarily biotinylated antigen peptides to interact with and immobilize onto a Series S Sensor Chip SA (certified) (GE Healthcare) were used. Antibodies of interest were captured onto an antigen peptide-immobilized chip, and allowed to interact to each FcγR diluted with running buffer. To regenerate and repeatedly use the chip, the antibodies captured on the chip were washed off by reacting 10 mM glycine-HCl, pH 1.5.
row,He_1a/2b (Ia/IIb),Binder
1,4.17,B1
2,2.09,B2
3,2.53,B3
4,1.88,B4
5,2.15,B5
6,2.31,B6

# Molecular target: T1, FcγRIIb
# Assay: SPR (Biacore), FcγR passed over captured antibody; binding amount as % of control GpH7-A5/GpH7-B3/GpL16-k0 (=100)
# Experimental: as §1, §2
row,He/Con_2b,Binder
1,"41.7 relative, control = 100",B7
2,"84.8 relative, control = 100",B8
3,"52.4 relative, control = 100",B9
4,"59.5 relative, control = 100",B10
5,"63.7 relative, control = 100",B11
6,"54.2 relative, control = 100",B12
7,"41.3 relative, control = 100",B13
8,"70.5 relative, control = 100",B14
9,"67.1 relative, control = 100",B15

# Molecular target: T2, FcγRIIa H
# Assay: as above
# Experimental: as §1, §2
row,He/Con_2aH,Binder
1,"54.9 relative, control = 100",B7
2,"108 relative, control = 100",B8
3,"79.7 relative, control = 100",B9
4,"75.5 relative, control = 100",B10
5,"42.5 relative, control = 100",B16
6,"84.4 relative, control = 100",B11
7,"67.3 relative, control = 100",B12
8,"32.2 relative, control = 100",B17
9,"11.3 relative, control = 100",B18
10,"65.4 relative, control = 100",B13
11,"87.6 relative, control = 100",B14
12,"87.3 relative, control = 100",B15

# Molecular target: T2, FcγRIIa H
# Assay: SPR (Biacore); He/Con_2aH divided by He/Con_2b (FcγRIIa H versus FcγRIIb)
# Experimental: as §1, §2
row,He_2aH/2b (IIaH/IIb) [ratio],Binder
1,1.32,B7
2,1.27,B8
3,1.52,B9
4,1.27,B10
5,4.6,B16
6,1.32,B11
7,1.24,B12
8,4.27,B17
9,1.26,B18
10,1.58,B13
11,1.24,B14
12,1.3,B15

# Molecular target: T3, FcγRIIb
# Assay: SPR (Biacore), captured antibody, soluble FcγR; relative to GpH7-A5/GpH7-B3/GpL16-k0 = 100
# Experimental: as §1, §2
row,He/Con_2b,Binder
1,16.9 % of control,B1
2,45.7 % of control,B2
3,38.5 % of control,B3
4,45.4 % of control,B4
5,45.1 % of control,B5
6,30.7 % of control,B6

# Molecular target: T4, FcγRIa
# Assay: as above
# Experimental: as §1, §2
row,He/Con_1a,Binder
1,70.4 % of control,B1
2,95.6 % of control,B2
3,97.4 % of control,B3
4,85.3 % of control,B4
5,96.9 % of control,B5
6,70.7 % of control,B6

# Reference: patent US20150344570A1 (published 2015)
